# In patent US20130109580A1, “High-Affinity Peptide Probes for Tumor Biomarker, GRP-78, and Screening Method Thereof” (ATOMIC ENERGY CONCIL-INSTITUTE OF NUCLEAR ENERGY RESEARCH, priority 2011, published 2013):
# Legend:
# [1] = biological target: T1, GRP-78 (Homo sapiens, UniProt P11021); assay: Phage display panning against GRP-78 with DNA sequencing of picked phages; assay type: binding; settings: 24 independent phages picked after panning
# Source text: (a) A desired target protein 10 is fixed at bottom of a container added with selected phages 11 from phage display library.
# (b) Each phage 11 is bound to the target protein 10 by using amino acid sequences contained in the phage 11.
# (c) A TBST buffer having 0.1% Tween-20 is obtained for processing washing. By using Tween-20 as a surfactant, unspecific bindings are destroyed.
# (d) The phages 11 which are bound to the target protein 10 are eluted under a weak acid status to be collected.
# (e) after amplifying the collected phages 11 bound to the target protein 10, a panning process of binding, washing and eluting as in step (b) to step (d) is run for two times. For better screening efficiency, a density of Tween-20 is increased after each time of the panning process. It is because that the unspecific bindings are not destroyed with a too low density of Tween-20; yet a too high density of Tween-20 not only destroys the specific bindings between the phages 11 and the target protein 10 but also destroys integrities of proteins in the phages 11.
# (f) Then, a quantification process is run with the screened phages 11 for estimating screening efficiency. DNA sequencing is then processed with the phages 11 to obtain actual sequences of 7 amino acids deposed on g3 protein (g3p). […]
# [2] = biological target: T1, GRP-78; assay: ELISA analysis of phage affinity to GRP-78; assay type: binding; settings: Maxisorb 96-well plate coated with GRP-78; CPS minus background without GRP-78; serially diluted phages
# Experimental: (g) In the end, enzyme-linked immunosorbent assay (ELISA) analysis is processed with the phages 11 to obtain high-affinity amino acid sequences of peptides.
# In FIG. 2, after three times of the panning process, luminescent antibodies 12 (HRP-conjugated M13-phage g8p monoclone antibody) against the phages 11 are added to be washed with the TBST buffer having 0.5% Tween-20. At last, an enhanced chemiluminescence (ECL) substrate is added for developing.
# Please further refer to FIG. 4 and FIG. 5, which are a view showing a calculating process and a result of an ELISA analysis. As shown in the figures, the four sequences selected from the five sequences are numbered as phage#01, phage#03, phage#13 and phage#15 for comparing their affinities to GRP-78. An ELISA analysis is processed after values of densities of the phages are deducted by background values at the same densities. In FIG. 3, Maxisorb 96-well plate is used. Row 11 and row 12 are not used. A1˜A10, C1˜C10, E1˜E10 and G1˜G10 are coated with GRP-78. 80 wells of A1˜A10, B1˜B10, C1˜C10, D1˜D10, E1˜E10, F1˜F10, G1˜G10, H1˜H10 and […] along with 40 clean wells are all blocked. On diluting the phages, the plate containing the 80 blocked wells along with the 40 blocked clean wells is used. The first to the tenth wells in each row contain phages sequentially diluted. […] A number of counts per second (CPS) is obtained by using an ELISA reader. […]
# T1 sequence (P11021 19-654, species assumed): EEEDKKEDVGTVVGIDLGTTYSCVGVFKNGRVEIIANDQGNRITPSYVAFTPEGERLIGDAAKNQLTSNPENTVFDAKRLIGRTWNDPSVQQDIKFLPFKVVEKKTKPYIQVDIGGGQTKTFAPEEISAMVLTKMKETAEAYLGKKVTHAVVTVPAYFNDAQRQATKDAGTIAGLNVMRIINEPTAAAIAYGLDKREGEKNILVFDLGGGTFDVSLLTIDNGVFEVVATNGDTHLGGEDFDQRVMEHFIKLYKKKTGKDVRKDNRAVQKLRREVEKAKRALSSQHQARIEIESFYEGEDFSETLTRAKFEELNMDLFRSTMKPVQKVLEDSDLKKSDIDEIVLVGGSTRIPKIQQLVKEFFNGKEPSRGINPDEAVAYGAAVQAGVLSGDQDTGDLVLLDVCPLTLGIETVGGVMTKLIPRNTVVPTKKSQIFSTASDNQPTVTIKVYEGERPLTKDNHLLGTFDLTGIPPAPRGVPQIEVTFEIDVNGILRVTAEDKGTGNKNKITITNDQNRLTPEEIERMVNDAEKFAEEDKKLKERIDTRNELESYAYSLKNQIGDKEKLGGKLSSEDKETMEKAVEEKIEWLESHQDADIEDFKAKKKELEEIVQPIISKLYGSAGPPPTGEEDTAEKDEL
Substance,occurrence of the sequence among picked phages [1],"affinity / binding force to GRP-78 (ELISA curve, pure CPS vs phage density) [2]"
YSLRMDF,very few occurrences,–
KCCY,–,strong binding forces
KLWVIPQ [ruled out for later analysis],very few occurrences,–
KVW,–,strong binding forces
